According to patent publication US20150344570A1 (published 2015):

T1: FcγRIIa R (FcγRIIa, allotype with Arg at position 131), extracellular domain with C-terminal His tag (human, UniProt P12318 34-217)
T1 construct: extracellular domain; also called FcγRIIa R type; 2aR
T1 sequence (looked up): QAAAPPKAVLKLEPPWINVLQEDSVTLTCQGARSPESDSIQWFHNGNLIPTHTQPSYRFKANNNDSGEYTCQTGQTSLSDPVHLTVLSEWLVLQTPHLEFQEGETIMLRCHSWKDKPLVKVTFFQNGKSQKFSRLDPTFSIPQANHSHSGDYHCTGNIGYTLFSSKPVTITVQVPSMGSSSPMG

B1: GpH7-B3 variant S337_07I/GpL16-k0 (antibody, human IgG1, kappa)
heavy: not shown
light: DIVMTQSPLSLPVTPGEPASISCQASESLVHSNRNTYLHWYLQKPGQSPQLLIYKVSNRFSGVPDRFSGSGSGTDFTLKISRVEAEDVGVYYCSQNTHVPPTFGQGTKVEIERTVAAPSVFIFPPSDEQLKSGTASVVCLLNNFYPREAKVQWKVDNALQSGNSQESVTEQDSKDSTYSLSSTLTLSKADYEKHKVYACEVTHQGLSSPVTKSFNRGEC
notes: also called Ho Ab
B2: GpH7-B3 variant S337_08L/GpL16-k0 (antibody, human IgG1, kappa)
heavy: not shown
light: B1 light
notes: also called Ho Ab
B3: GpH7-B3 variant S337_09D/GpL16-k0 (antibody, human IgG1, kappa)
heavy: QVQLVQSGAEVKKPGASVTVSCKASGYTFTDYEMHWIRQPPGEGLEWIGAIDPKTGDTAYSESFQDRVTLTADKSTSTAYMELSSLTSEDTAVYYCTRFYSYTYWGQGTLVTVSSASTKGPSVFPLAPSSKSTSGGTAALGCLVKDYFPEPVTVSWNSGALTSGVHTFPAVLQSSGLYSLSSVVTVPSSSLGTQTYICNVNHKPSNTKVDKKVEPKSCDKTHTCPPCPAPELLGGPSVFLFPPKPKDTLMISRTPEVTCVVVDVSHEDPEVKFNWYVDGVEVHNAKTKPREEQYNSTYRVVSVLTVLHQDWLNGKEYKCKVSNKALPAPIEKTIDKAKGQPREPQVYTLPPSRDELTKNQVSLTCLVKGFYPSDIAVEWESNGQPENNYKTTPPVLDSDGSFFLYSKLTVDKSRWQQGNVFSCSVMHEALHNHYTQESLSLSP
light: B1 light
notes: also called Ho Ab
B4: GpH7-B3 variant S337_10E/GpL16-k0 (antibody, human IgG1, kappa)
heavy: not shown
light: B1 light
notes: also called Ho Ab
B5: GpH7-B3 variant S337_11K/GpL16-k0 (antibody, human IgG1, kappa)
heavy: not shown
light: B1 light
notes: also called Ho Ab
B6: GpH7-B3 variant S337_12R/GpL16-k0 (antibody, human IgG1, kappa)
heavy: not shown
light: B1 light
notes: also called Ho Ab
B7: GpH7-B3 variant S337_15Y/GpL16-k0 (antibody, human IgG1, kappa)
heavy: not shown
light: B1 light
notes: also called Ho Ab
B8: GpH7-B3 variant S337_16H/GpL16-k0 (antibody, human IgG1, kappa)
heavy: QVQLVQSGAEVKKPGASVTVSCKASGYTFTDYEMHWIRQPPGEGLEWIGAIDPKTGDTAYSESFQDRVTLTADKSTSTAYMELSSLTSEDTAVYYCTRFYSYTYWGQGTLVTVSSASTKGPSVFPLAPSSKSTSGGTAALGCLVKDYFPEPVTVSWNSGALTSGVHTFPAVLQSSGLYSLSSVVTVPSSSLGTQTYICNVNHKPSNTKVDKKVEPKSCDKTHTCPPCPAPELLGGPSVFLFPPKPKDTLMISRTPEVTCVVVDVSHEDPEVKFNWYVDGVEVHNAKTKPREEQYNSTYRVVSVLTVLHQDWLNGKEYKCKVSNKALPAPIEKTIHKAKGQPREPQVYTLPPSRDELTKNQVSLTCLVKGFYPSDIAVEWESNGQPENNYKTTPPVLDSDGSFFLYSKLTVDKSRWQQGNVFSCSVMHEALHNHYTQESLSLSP
light: B1 light
notes: also called Ho Ab
B9: GpH7-B3 variant S337_18N/GpL16-k0 (antibody, human IgG1, kappa)
heavy: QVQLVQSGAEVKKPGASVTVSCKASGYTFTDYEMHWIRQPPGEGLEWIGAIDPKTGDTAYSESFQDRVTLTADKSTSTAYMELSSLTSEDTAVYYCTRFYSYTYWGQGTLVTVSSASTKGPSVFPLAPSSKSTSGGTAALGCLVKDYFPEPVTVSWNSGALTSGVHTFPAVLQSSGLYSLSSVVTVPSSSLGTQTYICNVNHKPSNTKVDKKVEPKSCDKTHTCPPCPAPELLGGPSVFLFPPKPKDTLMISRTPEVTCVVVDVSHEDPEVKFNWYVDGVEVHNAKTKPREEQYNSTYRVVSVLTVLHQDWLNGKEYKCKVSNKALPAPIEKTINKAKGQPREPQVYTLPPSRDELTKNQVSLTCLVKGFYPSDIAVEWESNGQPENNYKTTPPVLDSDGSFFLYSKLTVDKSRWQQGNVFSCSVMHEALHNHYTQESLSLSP
light: B1 light
notes: also called Ho Ab
B10: GpH7-B3 variant S337_19Q/GpL16-k0 (antibody, human IgG1, kappa)
heavy: not shown
light: B1 light
notes: also called Ho Ab
B11: GpH7-B3 variant S337_20W/GpL16-k0 (antibody, human IgG1, kappa)
heavy: not shown
light: B1 light
notes: also called Ho Ab
B12: GpH7-B3 variant T335_01G/GpL16-k0 (antibody, human IgG1, kappa)
heavy: not shown
light: B1 light
notes: also called Ho Ab
B13: GpH7-B3 variant T335_02A/GpL16-k0 (antibody, human IgG1, kappa)
heavy: not shown
light: B1 light
notes: also called Ho Ab
B14: GpH7-B3 variant T335_05P/GpL16-k0 (antibody, human IgG1, kappa)
heavy: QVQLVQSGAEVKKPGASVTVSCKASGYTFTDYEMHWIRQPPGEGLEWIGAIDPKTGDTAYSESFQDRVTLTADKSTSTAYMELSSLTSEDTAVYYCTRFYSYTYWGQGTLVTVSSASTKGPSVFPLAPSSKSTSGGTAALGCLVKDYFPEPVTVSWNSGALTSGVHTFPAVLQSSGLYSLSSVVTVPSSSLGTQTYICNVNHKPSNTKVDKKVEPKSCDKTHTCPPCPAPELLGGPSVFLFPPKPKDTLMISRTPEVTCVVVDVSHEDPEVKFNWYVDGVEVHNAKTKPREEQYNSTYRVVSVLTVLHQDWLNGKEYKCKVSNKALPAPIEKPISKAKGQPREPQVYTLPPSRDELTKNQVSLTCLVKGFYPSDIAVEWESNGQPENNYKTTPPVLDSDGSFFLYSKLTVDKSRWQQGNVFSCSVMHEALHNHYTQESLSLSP
light: B1 light
notes: also called Ho Ab
B15: GpH7-B3 variant T335_07I/GpL16-k0 (antibody, human IgG1, kappa)
heavy: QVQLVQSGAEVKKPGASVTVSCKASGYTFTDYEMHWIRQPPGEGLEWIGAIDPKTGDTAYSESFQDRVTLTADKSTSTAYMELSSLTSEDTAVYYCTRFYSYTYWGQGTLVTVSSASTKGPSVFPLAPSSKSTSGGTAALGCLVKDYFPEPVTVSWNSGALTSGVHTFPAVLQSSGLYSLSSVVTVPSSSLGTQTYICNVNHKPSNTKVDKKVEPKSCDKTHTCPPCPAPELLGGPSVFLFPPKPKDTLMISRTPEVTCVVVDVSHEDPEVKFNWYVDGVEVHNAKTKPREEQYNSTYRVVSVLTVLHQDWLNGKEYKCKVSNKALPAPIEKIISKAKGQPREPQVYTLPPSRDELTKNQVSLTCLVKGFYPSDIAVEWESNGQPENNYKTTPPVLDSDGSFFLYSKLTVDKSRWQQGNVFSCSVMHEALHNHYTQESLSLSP
light: B1 light
notes: also called Ho Ab
B16: GpH7-B3 variant T335_10E/GpL16-k0 (antibody, human IgG1, kappa)
heavy: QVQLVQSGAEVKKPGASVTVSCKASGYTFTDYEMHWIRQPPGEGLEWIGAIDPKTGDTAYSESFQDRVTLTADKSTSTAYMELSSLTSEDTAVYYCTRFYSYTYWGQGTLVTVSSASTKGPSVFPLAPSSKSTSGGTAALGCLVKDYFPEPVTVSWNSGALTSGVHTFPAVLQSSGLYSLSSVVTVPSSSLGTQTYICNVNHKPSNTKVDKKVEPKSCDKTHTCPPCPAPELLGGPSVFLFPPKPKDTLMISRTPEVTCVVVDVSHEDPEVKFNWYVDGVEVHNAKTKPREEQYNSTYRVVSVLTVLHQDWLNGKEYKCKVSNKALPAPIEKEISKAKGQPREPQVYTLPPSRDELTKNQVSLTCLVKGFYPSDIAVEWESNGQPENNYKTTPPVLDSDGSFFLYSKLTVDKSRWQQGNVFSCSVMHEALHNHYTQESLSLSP
light: B1 light
notes: also called Ho Ab
B17: GpH7-B3 variant T335_12R/GpL16-k0 (antibody, human IgG1, kappa)
heavy: not shown
light: B1 light
notes: also called Ho Ab
B18: GpH7-B3 variant T335_13S/GpL16-k0 (antibody, human IgG1, kappa)
heavy: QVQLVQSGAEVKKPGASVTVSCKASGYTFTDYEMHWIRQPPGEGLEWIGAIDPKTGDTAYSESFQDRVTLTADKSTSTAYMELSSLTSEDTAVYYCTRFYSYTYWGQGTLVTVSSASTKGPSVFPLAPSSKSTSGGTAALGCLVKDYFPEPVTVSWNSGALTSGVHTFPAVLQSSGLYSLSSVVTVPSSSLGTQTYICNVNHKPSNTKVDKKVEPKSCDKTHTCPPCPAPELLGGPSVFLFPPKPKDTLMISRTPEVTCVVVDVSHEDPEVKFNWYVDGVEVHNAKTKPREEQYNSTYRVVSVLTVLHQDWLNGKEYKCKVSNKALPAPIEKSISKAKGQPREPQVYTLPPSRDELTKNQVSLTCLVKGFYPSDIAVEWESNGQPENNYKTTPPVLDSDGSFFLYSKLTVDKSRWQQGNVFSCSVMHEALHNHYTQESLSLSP
light: B1 light
notes: also called Ho Ab
B19: GpH7-B3 variant T335_15Y/GpL16-k0 (antibody, human IgG1, kappa)
heavy: not shown
light: B1 light
notes: also called Ho Ab
B20: GpH7-B3 variant T335_16H/GpL16-k0 (antibody, human IgG1, kappa)
heavy: not shown
light: B1 light
notes: also called Ho Ab
B21: GpH7-B3 variant T335_18N/GpL16-k0 (antibody, human IgG1, kappa)
heavy: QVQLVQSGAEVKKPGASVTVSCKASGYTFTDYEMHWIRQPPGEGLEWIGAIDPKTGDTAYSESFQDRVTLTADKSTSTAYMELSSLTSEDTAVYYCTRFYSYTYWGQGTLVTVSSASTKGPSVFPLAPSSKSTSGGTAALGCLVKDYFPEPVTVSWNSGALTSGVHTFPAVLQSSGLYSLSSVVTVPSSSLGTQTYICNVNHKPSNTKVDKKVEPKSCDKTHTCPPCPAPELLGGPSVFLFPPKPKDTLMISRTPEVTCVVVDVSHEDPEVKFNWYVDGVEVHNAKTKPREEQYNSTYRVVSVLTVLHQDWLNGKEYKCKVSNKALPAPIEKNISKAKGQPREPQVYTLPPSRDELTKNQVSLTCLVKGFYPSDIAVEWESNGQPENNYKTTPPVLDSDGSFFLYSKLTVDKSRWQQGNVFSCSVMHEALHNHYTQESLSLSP
light: B1 light
notes: also called Ho Ab
B22: GpH7-B3 variant T335_19Q/GpL16-k0 (antibody, human IgG1, kappa)
heavy: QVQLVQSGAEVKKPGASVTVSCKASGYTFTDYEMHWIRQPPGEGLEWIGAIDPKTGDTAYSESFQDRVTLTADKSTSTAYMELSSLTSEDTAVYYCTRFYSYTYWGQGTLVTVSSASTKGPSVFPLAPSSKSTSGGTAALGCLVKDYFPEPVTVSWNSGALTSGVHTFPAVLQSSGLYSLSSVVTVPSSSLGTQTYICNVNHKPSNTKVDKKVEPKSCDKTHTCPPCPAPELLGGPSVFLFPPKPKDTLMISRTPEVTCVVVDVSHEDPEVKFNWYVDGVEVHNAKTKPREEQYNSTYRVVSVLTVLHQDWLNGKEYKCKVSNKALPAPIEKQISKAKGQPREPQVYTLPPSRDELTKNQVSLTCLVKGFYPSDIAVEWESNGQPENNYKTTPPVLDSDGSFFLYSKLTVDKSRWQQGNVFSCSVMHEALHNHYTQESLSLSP
light: B1 light
notes: also called Ho Ab
B23: GpH7-B3 variant T335_20W/GpL16-k0 (antibody, human IgG1, kappa)
heavy: not shown
light: B1 light
notes: also called Ho Ab
B24: GpH7-B3 variant V266_06M/GpL16-k0 (antibody, human IgG1, kappa)
heavy: not shown
light: B1 light
notes: also called Ho Ab
B25: GpH7-B3 variant Y296_04F/GpL16-k0 (antibody, human IgG1, kappa)
heavy: not shown
light: B1 light
notes: also called Ho Ab
B26: GpH7-B3 variant Y296_06M/GpL16-k0 (antibody, human IgG1, kappa)
heavy: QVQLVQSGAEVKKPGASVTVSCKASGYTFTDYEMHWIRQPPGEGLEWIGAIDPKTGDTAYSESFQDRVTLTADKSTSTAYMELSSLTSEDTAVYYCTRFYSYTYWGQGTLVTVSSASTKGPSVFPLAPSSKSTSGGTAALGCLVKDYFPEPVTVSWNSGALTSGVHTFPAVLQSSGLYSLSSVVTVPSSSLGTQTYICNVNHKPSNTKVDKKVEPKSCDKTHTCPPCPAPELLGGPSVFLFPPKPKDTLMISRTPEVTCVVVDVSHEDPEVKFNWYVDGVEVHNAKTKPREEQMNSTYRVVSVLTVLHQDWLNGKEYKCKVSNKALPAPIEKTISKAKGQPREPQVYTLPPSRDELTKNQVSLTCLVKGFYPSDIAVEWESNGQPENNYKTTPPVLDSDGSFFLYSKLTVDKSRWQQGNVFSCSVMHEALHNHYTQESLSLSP
light: B1 light
notes: also called Ho Ab
B27: GpH7-B3 variant Y296_07I/GpL16-k0 (antibody, human IgG1, kappa)
heavy: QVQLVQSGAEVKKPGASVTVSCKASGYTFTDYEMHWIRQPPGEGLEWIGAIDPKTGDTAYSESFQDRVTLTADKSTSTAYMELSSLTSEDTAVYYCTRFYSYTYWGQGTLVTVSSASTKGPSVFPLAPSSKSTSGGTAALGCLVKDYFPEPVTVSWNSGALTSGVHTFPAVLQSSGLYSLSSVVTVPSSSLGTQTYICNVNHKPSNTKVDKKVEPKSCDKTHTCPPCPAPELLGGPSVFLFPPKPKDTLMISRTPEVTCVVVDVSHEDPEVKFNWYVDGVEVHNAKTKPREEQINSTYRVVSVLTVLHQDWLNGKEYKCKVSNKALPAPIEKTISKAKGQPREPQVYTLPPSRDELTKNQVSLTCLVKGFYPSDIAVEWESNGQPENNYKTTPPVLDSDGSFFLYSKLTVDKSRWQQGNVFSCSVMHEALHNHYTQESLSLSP
light: B1 light
notes: also called Ho Ab
B28: GpH7-B3 variant Y296_09D/GpL16-k0 (antibody, human IgG1, kappa)
heavy: not shown
light: B1 light
notes: also called Ho Ab

The binders below were run against T1, FcγRIIa R (FcγRIIa, allotype with Arg …) (assay: SPR (Biacore), antibody captured on antigen peptide chip, FcγR as analyte; relative binding).
Description: Analysis of interaction between objective antibody and the FcγR was carried out using Biacore T100 (GE Healthcare). HBS-EP+ (GE Healthcare) was used as the running buffer, and the measurement temperature was set to 25° C. Chips produced by immobilizing the antigen peptide by the amine coupling method to a Series S Sencor Chip CM5 (GE Healthcare), or alternatively, chips produced by allowing preliminarily biotinylated antigen peptides to interact with and immobilize onto a Series S Sensor Chip SA (certified) (GE Healthcare) were used. Antibodies of interest were captured onto an antigen peptide-immobilized chip, and allowed to interact to each FcγR diluted with running buffer. To regenerate and repeatedly use the chip, the antibodies captured on the chip were washed off by reacting 10 mM glycine-HCl, pH 1.5.
B1 was tested, and the Ho/Con_2aR was 103 % of GpH7-B3/GpL16-k0 (=100).
With B2 the Ho/Con_2aR was 99.4 % of GpH7-B3/GpL16-k0 (=100).
With B3 the Ho/Con_2aR was 114 % of GpH7-B3/GpL16-k0 (=100).
B4 was tested, and the Ho/Con_2aR was 110 % of GpH7-B3/GpL16-k0 (=100).
In the case of B5, the Ho/Con_2aR is reported as 94.6 % of GpH7-B3/GpL16-k0 (=100).
In the case of B6, the Ho/Con_2aR is reported as 100 % of GpH7-B3/GpL16-k0 (=100).
In the case of B7, the Ho/Con_2aR is reported as 100 % of GpH7-B3/GpL16-k0 (=100).
With B8 the Ho/Con_2aR was 107 % of GpH7-B3/GpL16-k0 (=100).
With B9 the Ho/Con_2aR was 103 % of GpH7-B3/GpL16-k0 (=100).
In the case of B10, the Ho/Con_2aR is reported as 102 % of GpH7-B3/GpL16-k0 (=100).
For B11, the Ho/Con_2aR was 105 % of GpH7-B3/GpL16-k0 (=100).
B12 was tested, and the Ho/Con_2aR was 97.7 % of GpH7-B3/GpL16-k0 (=100).
With B13 the Ho/Con_2aR was 102 % of GpH7-B3/GpL16-k0 (=100).
For B14, the Ho/Con_2aR was 104 % of GpH7-B3/GpL16-k0 (=100).
With B15 the Ho/Con_2aR was 107 % of GpH7-B3/GpL16-k0 (=100).
With B16 the Ho/Con_2aR was 109 % of GpH7-B3/GpL16-k0 (=100).
For B17, the Ho/Con_2aR was 94 % of GpH7-B3/GpL16-k0 (=100).
B18 was tested, and the Ho/Con_2aR was 102 % of GpH7-B3/GpL16-k0 (=100).
For B19, the Ho/Con_2aR was 107 % of GpH7-B3/GpL16-k0 (=100).
For B20, the Ho/Con_2aR was 102 % of GpH7-B3/GpL16-k0 (=100).
With B21 the Ho/Con_2aR was 100 % of GpH7-B3/GpL16-k0 (=100).
In the case of B22, the Ho/Con_2aR is reported as 102 % of GpH7-B3/GpL16-k0 (=100).
In the case of B23, the Ho/Con_2aR is reported as 101 % of GpH7-B3/GpL16-k0 (=100).
B24 was tested, and the Ho/Con_2aR was 146 % of GpH7-B3/GpL16-k0 (=100).
For B25, the Ho/Con_2aR was 106 % of GpH7-B3/GpL16-k0 (=100).
B26 was tested, and the Ho/Con_2aR was 84 % of GpH7-B3/GpL16-k0 (=100).
B27 was tested, and the Ho/Con_2aR was 83.1 % of GpH7-B3/GpL16-k0 (=100).
With B28 the Ho/Con_2aR was 94.5 % of GpH7-B3/GpL16-k0 (=100).
